Patent publication US20240343803A1 (SHANDONG SIMCERE BIOPHARMACEUTICAL, published 2024)

T1: human PVRIG-his (AcroBiosystems, Cat NO. PVG-H52H4) (human, UniProt Q6DKI7 41-171, limits assumed)
T1 construct: treated as the same protein; also called human PVRIG-His protein; Human PVRIG-His, Acro C227P1-9ARF1-T4
T1 sequence (looked up): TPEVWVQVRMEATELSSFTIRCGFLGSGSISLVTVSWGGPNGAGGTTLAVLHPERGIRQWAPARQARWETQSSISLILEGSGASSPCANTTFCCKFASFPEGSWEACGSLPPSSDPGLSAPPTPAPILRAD

T2: human PVRIG-mFc protein (Acro, PVG-H5253) (human, UniProt Q6DKI7 41-171, limits assumed)
T2 construct: bought reagent; also called PVRIG-ECD-mFc
T2 sequence (looked up): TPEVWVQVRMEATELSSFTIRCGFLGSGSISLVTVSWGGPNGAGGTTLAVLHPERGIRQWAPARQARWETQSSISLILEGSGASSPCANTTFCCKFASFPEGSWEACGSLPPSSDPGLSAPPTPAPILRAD

T3: Full-length human TIGIT on CHO-K1 cells (CHO-K1 human TIGIT) (human, UniProt Q495A1 22-244)
T3 construct: NCBI XP_024309156.1; the entry includes the signal peptide (limits not recoverable); The strain (high, medium, low) is named under assay; also called high expression strain 1D2; medium expression strain 2D10
T3 sequence: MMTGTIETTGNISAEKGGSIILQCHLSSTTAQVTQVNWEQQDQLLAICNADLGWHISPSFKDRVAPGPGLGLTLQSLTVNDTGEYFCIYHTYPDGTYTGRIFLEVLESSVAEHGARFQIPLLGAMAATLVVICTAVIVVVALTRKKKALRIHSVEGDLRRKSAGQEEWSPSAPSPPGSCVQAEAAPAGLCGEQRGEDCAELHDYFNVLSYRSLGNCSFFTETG

T4: Fusion protein of extracellular domain of human TIGIT and His-tag (human TIGIT ECD-his) (human)
T4 chain: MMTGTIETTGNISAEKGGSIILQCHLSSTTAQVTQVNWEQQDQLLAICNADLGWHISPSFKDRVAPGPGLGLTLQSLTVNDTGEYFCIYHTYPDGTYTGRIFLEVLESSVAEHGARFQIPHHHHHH

T5: Fusion protein of extracellular domain of human TIGIT and mouse IgG2a Fc fragment (human TIGIT ECD-mFc) (human)
T5 construct: The entry includes the signal peptide (limits not recoverable) and the mouse IgG2a Fc
T5 chain: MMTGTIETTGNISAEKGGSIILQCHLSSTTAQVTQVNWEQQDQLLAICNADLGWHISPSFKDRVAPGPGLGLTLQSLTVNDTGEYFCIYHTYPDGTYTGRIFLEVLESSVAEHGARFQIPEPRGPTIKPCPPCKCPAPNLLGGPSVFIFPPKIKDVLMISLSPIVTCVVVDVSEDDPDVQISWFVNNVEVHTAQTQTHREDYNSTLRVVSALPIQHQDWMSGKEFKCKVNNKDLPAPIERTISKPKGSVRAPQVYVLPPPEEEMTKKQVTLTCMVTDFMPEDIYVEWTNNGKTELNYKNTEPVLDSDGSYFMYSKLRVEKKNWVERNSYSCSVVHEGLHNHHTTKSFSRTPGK


Key:
[1] = target: T1, human PVRIG-his (AcroBiosystems, Cat …); experiment: competition ELISA on coated human PVRIG-his; blocked ligand human PVRL2-mFc
Procedure: The ELISA plate was pre-coated with 100 μL/well of 0.5 μg/mL human PVRIG-his protein (AcroBiosystems, Cat NO. PVG-H52H4). The tested anti-PVRIG antibodies were diluted from the highest concentration of 16 nM (two-fold concentration). The diluted antibodies were mixed with 18 ng/ml human PVRL2-mFc (AcroBiosystems, Cat NO. CD2-H5257) in equal volume, added into the plate (100 μL/well), and incubated with shaking at room temperature for 2.0 hours. […] A HRP substrate, TMB (Thermo, Cat NO. 34029) was added into wells after washing the plate again for color development. After adding a termination solution to terminate the reaction, the absorbance value was read by a microplate reader (MD i3×). An inhibiting curve was drawn with concentration of antibodies as the abscissa and the corresponding OD value as the ordinate. The IC50 value was calculated by using a Four Parameter Logistic Fit (GraphPadPrism9). The smaller the IC50 value, the stronger the ability of the antibodies inhibits the binding between PVRIG and PVRL2. The positive and negative controls are the same as in Example 8.

[2] = target: T2, human PVRIG-mFc protein (Acro, …); experiment: competition FACS; blocked: human PVRIG-mFc binding to CHO-K1-CD112 cells
Procedure: After incubation, the cells were added with staining buffer (2% FBS+PBS) to stop staining, centrifuged at 350×g to remove the supernatant, washed twice and resuspended with staining buffer to a density of 1×10⁶ cells/mL. The cells were plated into a 96-well plate (50 μL of cell suspension per well) for further use. A working solution of human PVRIG-mFc protein (Acro, PVG-H5253) prepared with staining buffer, 1 μg/mL (four-fold concentration), was added into a 96-well plate (50 μL PVRIG-mFc working solution per well). […] The diluted antibodies were added to the well containing 50 μL of PVRIG-mFc. The plate was placed on a microplate shaker at 400 rpm for 1 minute to fully mix the antibodies and PVRIG-mFc proteins, and then incubated at 4° C. for 30 minutes. After the incubation, the cell suspension prepared above (100 μL) was added into the wells, gently mixed with the pipette tip and incubated at 4° C. for 30 minutes. After the incubation, the cells were washed twice with staining buffer (200 μL per well) and centrifuged at 350×g for 5 minutes to discard the supernatant. The PE goat anti-mouse IgG Fc antibody (Biolegend, 405337) was diluted 250 times with staining buffer, added into the washed wells (100 μL per well), mixed well, and stained at 4° C. for 30 minutes. After staining, the cells were washed twice with staining buffer, finally resuspended with 200 μL staining buffer and analyzed by flow cytometry (BD, Canto II). The weaker the fluorescence signal, the stronger the ability of the antibodies blocks the binding of CHO-K1 human CD112 cells to the PVRIG-mFc protein. An antibody binding curve was drawn with concentration of antibodies as the abscissa and the corresponding Mean Fluorescence Intensity (MFI) as the ordinate. The IC50 value of the antibodies and the AUC value of the binding curve were calculated by using a Four Parameter Logistic Fit (GraphPadPrism9). The smaller the IC50 value and AUC value, the stronger the ability of the antibodies competes with CHO-K1-CD112 cells to bind to human PVRIG-mFc protein.

[3] = target: T3, Full-length human TIGIT on CHO-K1 cells …; experiment: cell binding, CHO-K1 human TIGIT high expression strain
Procedure: The collected cells were washed once with PBS (Hyclone, CAT #SH30256), resuspended to 2×10⁵/50 μL with 1% BSA-PBS. The antibodies were diluted to 80 nM with 1% BSA-PBS (diluted by 3-fold serial dilution for 12 concentration points). The 50 μL cells were then mixed with 50 μL diluted antibodies, and then incubated at 4° C. for 60 minutes. […] After washing twice with PBS, the cell samples were resuspended with 1% BSA-PBS, 100 μL/well and then analyzed by flow cytometry (BD, Canto II). […] [0298] (c) The effect of anti-TIGIT chimeric antibodies blocking the interaction between Bio-CD155-His and CHO-K1 human TIGIT high expression cell strains detected by FACS
(§1) The affinity of the above humanized antibodies with human TIGIT ECD-His is detected by BIAcore, and with reference to the methods of Example 4 (a), (b), and (d), the binding activity of the above humanized antibodies to human TIGIT ECD-mFc, CHO-K1 human TIGIT, CHO-K1 cynomolgus monkey TIGIT and cynomolgus monkey TIGIT ECD-mFc, and the effect of the humanized antibodies blocking the binding between human TIGIT ECD-mFc and CHO-K1 CD155 are detected, the results are shown in Table 18.

[4] = target: T4, Fusion protein of extracellular domain …; experiment: BIAcore
[5] = target: T5, Fusion protein of extracellular domain …; experiment: ELISA, human TIGIT ECD-mFc
Procedure: (§2) After discarding the coating solution, the plate was added with 5% skim milk powder (Sangon Biotech, CAT #A600669-0250)-PBS, 250 μL/well, and incubated at 37° C. for 2-4 hours. […] The enzyme-labeled plate was then washed with 0.05% Tween 20-PBS for 3 times on the Microplate Washer, added with tested antibodies diluted to 13 nM with 1% BSA (diluted by 3-fold serial dilution for 12 concentration points), 50 μL/well, and incubated at 37° C. for 1.5-2 hours. The plate was washed with 0.05% Tween 20-PBS for 3 times on the Microplate Washer, then added with HRP enzyme-labeled antibodies (Merck, CAT #AP113P) diluted with 1% BSA (Sangon Biotech, CAT #A500023-0100)-PBS at a dilution ratio of 1:5000, 50 μL/well, and incubated at 37° C. for 1 hour. After washing 3 times with 0.05% Tween 20-PBS on the Microplate Washer, the plate was added with TMB chromogenic solution (KPL, CAT #52-00-03), 50 μL/well, and incubated at room temperature for 7-10 minutes. 1M HCL, 50 μL/well, was then added into the plate to terminate the reaction, and the OD450 nm was read by a microplate reader (Biotek, Powerwave HT). […] (b) The binding activity of anti-TIGIT chimeric antibodies to CHO-K1 human TIGIT (cells with high, medium and low expression levels) and CHO-KI cynomolgus monkey TIGIT detected by FACS.
as §1

[6] = target: T4, Fusion protein of extracellular domain …; experiment: BIAcore; KD ratio to TIGIT-CHI-006
[7] = target: T6, Fusion protein of extracellular domain of human TIGIT and human IgG1 Fc fragment (human TIGIT ECD-hFc) (human); experiment: blocking of TIGIT ECD-hFc binding to CHO-K1 CD155 cells
T6 construct: The entry includes the signal peptide (limits not recoverable) and the human IgG1 Fc
T6 sequence (chain, as listed by the source limits assumed): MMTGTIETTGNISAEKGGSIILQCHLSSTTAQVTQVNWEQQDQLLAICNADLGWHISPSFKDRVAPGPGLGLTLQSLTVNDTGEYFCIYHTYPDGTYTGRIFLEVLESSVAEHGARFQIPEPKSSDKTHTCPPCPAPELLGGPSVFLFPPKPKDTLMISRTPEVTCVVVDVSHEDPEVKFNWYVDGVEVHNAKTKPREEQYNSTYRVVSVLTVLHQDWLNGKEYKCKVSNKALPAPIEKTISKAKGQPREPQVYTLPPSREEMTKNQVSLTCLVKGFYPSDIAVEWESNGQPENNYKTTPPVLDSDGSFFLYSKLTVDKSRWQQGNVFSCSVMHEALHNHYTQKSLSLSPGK
Method in brief: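 Cell-based ELISA on CHO-K1 CD155 cells, cultured overnight, fixed and blocked with 5% skim milk-PBS. Antibodies were premixed for 0.5 h with human TIGIT ECD-hFc (working concentration 30 ng/mL), then added and held at 37° C for 1.5-2 h. Bound TIGIT was detected with HRP secondary antibody (1:5000, 37° C, 1 h) and TMB, read as OD450 nm. IC50 came from the inhibition curves.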

[8] = target: T7, Fusion protein of extracellular domain of cynomolgus monkey TIGIT and mouse IgG2a Fc fragment (cynomolgus … (cynomolgus monkey)); experiment: ELISA, cynomolgus monkey TIGIT ECD-mFc
T7 construct: The entry includes the signal peptide (limits not recoverable) and the mouse IgG2a Fc
T7 sequence (chain, as listed by the source limits assumed): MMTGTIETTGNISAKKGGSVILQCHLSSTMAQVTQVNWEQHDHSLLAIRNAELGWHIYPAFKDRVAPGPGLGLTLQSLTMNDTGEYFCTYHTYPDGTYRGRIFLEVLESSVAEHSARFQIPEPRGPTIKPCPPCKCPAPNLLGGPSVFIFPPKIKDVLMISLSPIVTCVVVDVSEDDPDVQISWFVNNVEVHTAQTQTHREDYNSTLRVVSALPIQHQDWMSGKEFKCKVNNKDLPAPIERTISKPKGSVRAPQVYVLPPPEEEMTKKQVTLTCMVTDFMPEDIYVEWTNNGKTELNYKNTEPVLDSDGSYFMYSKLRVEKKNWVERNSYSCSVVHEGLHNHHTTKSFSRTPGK
Procedure: as §2, §1

| Binder | IC50 (read off the curve) [1] [nM] | IC50 (read off the curve) [2] [nM] | EC50 [3] [nM] | Kd [4] [nM] | koff [4] [s⁻¹] | kon [4] [M⁻¹ s⁻¹] | EC50 [5] [nM] | Fold change vs chimeric antibodies (KD) [6] [fold] | IC50 [7] [nM] | EC50 [8] [nM] |
| --- | --- | --- | --- | --- | --- | --- | --- | --- | --- | --- |
| PVRIG-A104 (VHH, tested as VHH-hinge-CH2-CH3 (human IgG1-Fc); not shown: human IgG1 hinge-CH2-CH3) VHH: EVQVVESGGGLVQAGGSLRLSCAASGRTRSMYVMGWFRQAPGKEREFVGRIKWSGDTTYTSYADFVKGRFTLYGNQARNTVYLQMNSLKPEDTAVYYCYRRSWTNTKLYWGKGIQVTVSS | ~1 | ~1 |  |  |  |  |  |  |  |  |
| PVRIG-A35 (VHH, tested as VHH-hinge-CH2-CH3 (human IgG1-Fc); not shown: human IgG1 hinge-CH2-CH3) VHH: EVQVVESGGGLVQSGGSLRLSCAASGRTRSMYVMGWFRQAPGKEREFVGRIKWSGDTTYTSYADFVKGRFTLYGNQARNTVYLQMNSLKPEDTAVYYCNGRSRFNVINAWGTGTLVTVAS | ~1 | ~1 |  |  |  |  |  |  |  |  |
| PVRIG-A43 (VHH, tested as VHH-hinge-CH2-CH3 (human IgG1-Fc); not shown: human IgG1 hinge-CH2-CH3) VHH: QVQLVESGGGLVQSGGSLRLSCAASGRTRSMYVMGWFRQAPGKEREFVGRIKWSGDTTYTSYADFVKGRFTLYGNQARNTVYLQMNSLKVEDTAVYYCAGRVVPLPSRQRDRYDYWGQGTQVTVSS | ~1 | ~1 |  |  |  |  |  |  |  |  |
| TIGIT-006-H3L1 (antibody, V domains shown, Humanized anti-TIGIT antibody) VH: EVQLQESGPGLVKPSETLSLTCAVSGYSMTSDYWNWIRQPPGKKLEWIGYISYSGRTYYNPSLKSRVTISRDTSKNQFSLKLSSVTAADTAVYYCARGDYSNYGGAMYDWGQGTTVTVSS VL: DIVMTQTPLSLSVTPGQPASISCRASQGVSTTIAWYLQKPGQSPQLLIYSASYRYTGVPDRFSGSGSGTDFTLKISRVEAEDVGVYYCQQYYSSPFTFGGGTKVEIK |  |  | 0.0468 | 0.705 | 0.000241 | 342000 | 0.0096 | 9.11 | 0.637 | 2.81 |
| TIGIT-006-H4L1 (antibody, V domains shown, Humanized anti-TIGIT antibody) VH: EVQLQESGPGLVKPSETLSLTCAVSGYSMTSDYWNWIRQPPGKKLEWMGYISYSGRTYYNPSLKSRITISRDTSKNQFSLKLSSVTAADTAVYYCARGDYSNYGGAMYDWGQGTTVTVSS VL: DIVMTQTPLSLSVTPGQPASISCRASQGVSTTIAWYLQKPGQSPQLLIYSASYRYTGVPDRFSGSGSGTDFTLKISRVEAEDVGVYYCQQYYSSPFTFGGGTKVEIK |  |  | 0.0349 | 0.657 | 0.000258 | 393000 | 0.0086 | 8.49 | 0.704 | 1.53 |
| TIGIT-006-H2L2 (antibody, V domains shown, Humanized anti-TIGIT antibody) VH: EVQLQESGPGLVKPSETLSLTCAVSGYSMTSDYWNWIRQPPGKGLEWIGYISYSGRTYYNPSLKSRVTISRDTSKNQFSLKLSSVTAADTAVYYCARGDYSNYGGAMYDWGQGTTVTVSS VL: DIVMTQTPLSLSVTPGQPASISCRASQGVSTTIAWYQQKPGQSPKLLIYSASYRYTGVPDRFSGSGSGTDFTLKISRVEAEDVGVYYCQQYYSSPFTFGGGTKVEIK |  |  | 0.0444 | 0.893 | 0.000324 | 363000 | 0.0117 | 11.5 | 0.904 | 3.38 |
